“Also recorded” adds a separate entry of the source. Where two headings read alike, the source gives them in different places.
Columns and labels:
ACE2 = ACE2 (Homo sapiens, UniProt Q9BYF1); details: cited from earlier work
[1] = tested on: Spike (SARS-CoV-2) pseudotyped lentivirus; format: cell-based
AngII = test: Phenylalanine Assay: ACE2 peptidase activity with AngII as substrate; details: phenylalanine hydrolysis, 20 min, 37° C.
Description: (§1) ACE2 peptidase activity measured using physiological substrates of AngII and apelin-13. […] It involves two coupled reactions, hydrolysis of the C-terminus phenylalanine residues from the substrates by ACE2 catalysis and the measurement of free amino acid phenylalanine using yeast enzyme of phenylalanine ammonia lyase (PAL) in a colorimetric assay (supplementary Figure S2).
(§2) The reactions were carried out using indicated concentrations of ACE2-Fc proteins together with either AngII or apelin-13 at indicated concentrations in reaction buffer containing 20 mM Tris-HCl, pH=7.4, 136 mM NaCl and 10 μM ZnC12. The first reaction was proceeded at 37° C. after 20 min before stopped by 80° C. heat inactivation for 5 min. The second reaction used a phenylalanine detection kit (Sigma-Aldrich, St. Louis, Mo.). 1 μL enzyme mix and 1 μL developer from the kit were added to the above reaction, which was allowed to proceed for 20 min at room temperature. Fluorescence intensity was measured at 535 nm excitation and 585 nm emission wavelength, and all reactions were performed in triplicate.
(§3) We performed Mca-APK(Dnp) measurements, alongside phenylalanine hydrolysis assays using AngII and apelin-13 as substrates to determine the enzymatic activities of the ACE2-Fc variants (FIG. 2A-C). […] The first method used an excess amount of the enzyme (100 ng) in reactions with varying concentrations of the three substrates. This would potentially detect low partial activity of enzymes.

[2] = tested on: Mca-APK(Dnp) surrogate fluorogenic substrate; details: 20 min reaction, compared with wild-type ACE2-Fc
Description: ACE2 peptidase activity measured using surrogate Mca-APK(Dnp). ACE2-Fc peptidase activity assay using surrogate fluorogenic substrate Mca-APK(Dnp) (Enzo Life Sciences, Farmingdale, N.Y.) was performed in black microtiter plates. The reaction buffer contained 50 mM 4-morpholineethanesulfonic acid, pH=6.5, 300 mM NaCl, 10 μM ZnC12, 0.01% Triton X-100 and 20 μM of Mca-APK(Dnp). The total reaction volume was 100 μL at room temperature and the duration of the reactions were 20 min. Peptidase activities were calculated as fluorescence intensity at 320 nm excitation and 420 nm emission wavelength.
In parallel, we performed ACE2 activity assays using either Mca-APK(Dnp) or synthetic Ang II peptide as substrate together with individual variants of ACE2-Fc as the enzyme. By using Mca-APK(Dnp), fluorescence signals at 328 nm excitation and 393 nm emission were recorded.

apelin-13 [3] = test: Phenylalanine Assay: ACE2 peptidase activity with apelin-13 as substrate; details: phenylalanine hydrolysis, 20 min, 37° C.
Description: as §1, §2, §3

Ang II = test: Mass spectrometry analysis of peptides generated from Ang II by ACE2-Fc; details: Ang II peptide as substrate
Mca-APK(Dnp) = details: cited from earlier work
apelin-13 [4] = molecular target: apelin-13 (Homo sapiens, UniProt Q9BYF1); details: cited from earlier work
apelin-13 (Homo sapiens, UniProt Q9BYF1), sequence (Q9BYF1 18-805): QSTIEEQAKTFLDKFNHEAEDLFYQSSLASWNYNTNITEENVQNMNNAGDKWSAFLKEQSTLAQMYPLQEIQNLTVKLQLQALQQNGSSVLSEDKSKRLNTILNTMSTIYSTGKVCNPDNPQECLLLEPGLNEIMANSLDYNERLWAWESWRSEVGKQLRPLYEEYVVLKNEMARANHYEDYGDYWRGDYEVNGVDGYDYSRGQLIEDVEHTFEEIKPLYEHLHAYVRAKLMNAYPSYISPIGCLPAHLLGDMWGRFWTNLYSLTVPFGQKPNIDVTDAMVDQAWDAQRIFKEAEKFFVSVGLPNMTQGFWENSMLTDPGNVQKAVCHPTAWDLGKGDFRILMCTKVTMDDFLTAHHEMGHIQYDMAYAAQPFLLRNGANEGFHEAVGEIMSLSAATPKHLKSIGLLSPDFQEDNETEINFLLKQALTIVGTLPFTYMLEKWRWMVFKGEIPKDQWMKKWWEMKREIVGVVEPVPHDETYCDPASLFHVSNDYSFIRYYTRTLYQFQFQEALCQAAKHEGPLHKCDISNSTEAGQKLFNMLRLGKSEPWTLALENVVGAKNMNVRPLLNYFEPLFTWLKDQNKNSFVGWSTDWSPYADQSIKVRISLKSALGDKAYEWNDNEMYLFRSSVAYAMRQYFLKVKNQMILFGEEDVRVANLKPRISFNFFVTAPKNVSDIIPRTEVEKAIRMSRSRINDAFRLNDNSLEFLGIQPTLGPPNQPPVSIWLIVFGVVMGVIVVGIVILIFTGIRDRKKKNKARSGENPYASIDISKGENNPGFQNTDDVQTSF

angiotensin I = angiotensin I (Homo sapiens, UniProt Q9BYF1); details: cited from earlier work
angiotensin I, sequence (Q9BYF1 18-805): as above

angiotensin II = angiotensin II (Homo sapiens, UniProt Q9BYF1); details: cited from earlier work
angiotensin II, sequence (Q9BYF1 18-805): as above

dynorphin-13 = dynorphin-13 (Homo sapiens, UniProt Q9BYF1); details: cited from earlier work
dynorphin-13, sequence (Q9BYF1 18-805): as above

[5] = molecular target: RBD of SARS-CoV-2 spike protein (Severe acute respiratory syndrome coronavirus 2, UniProt P0DTC2)
[6] = degradation of AngII by the fusion; cited from earlier work
[7] = mice, up to two months; cited from earlier work

ACE2, sequence (Q9BYF1 18-805): as above

O=C(O)CN(CCN(CC(=O)O)CC(=O)O)CC(=O)O [EDTA]
inhibition of ACE2 (ACE2): inhibited

CC(C)C[C@H](N[C@@H](Cc1cncn1Cc1cc(Cl)cc(Cl)c1)C(=O)O)C(=O)O [MLN-4760]
inhibition of ACE2 (ACE2): inhibited

C[C@H](CS)C(=O)N1CCC[C@H]1C(=O)O [captopril]
inhibition of ACE2 (ACE2): not

NCCCC[C@H](N[C@@H](CCc1ccccc1)C(=O)O)C(=O)N1CCC[C@H]1C(=O)O [linosipril]
inhibition of ACE2 (ACE2): not

E402A: ACE2-Fc fusion with single alanine substitution of Zn2+-binding residue Glu402; loss-of-activity variant
IC50 of pseudotyped viral transduction [1]: 0.25 µg/mL | inhibition of pseudotyped viral transduction (in words) [1]: could suppress the transduction of a pseudotyped virus | peptidase activity toward AngII (Phe release) (AngII): inactivate ACE2; also recorded: completely lost their enzymatic activity | peptidase activity toward AngII (Phe release) (AngII; listed as Glu402Ala): completely lack of peptidase activity | peptidase activity toward surrogate substrate Mca-APK(Dnp) [2]: completely lost their enzymatic activity | peptidase activity toward surrogate substrate Mca-APK(Dnp) ([2]; listed as Glu402Ala): completely lack of peptidase activity | peptidase activity toward apelin-13 (Phe release) (apelin-13 [3]): inactivate ACE2; also recorded: completely lost their enzymatic activity | peptidase activity toward apelin-13 (Phe release) (apelin-13 [3]; listed as Glu402Ala): completely lack of peptidase activity

H345A: ACE2-Fc fusion with single alanine substitution of His345
generation of Ang 1-7 from Ang II by mass spectrometry (Ang II): full activity; also recorded: remained fully active | generation of Ang 1-7 from Ang II by mass spectrometry (Ang II; listed as ACE2-Fc H345A): full activity

H345L: Glasgow et al. ACE2 trap with H345L mutation at the catalytic center
activity against Mca-APK(Dnp) (Glasgow et al.) (Mca-APK(Dnp)): loss-of-activity

H374N/H378N: Glasgow et al. ACE2 trap with double mutations of the Zn2+-binding residues
activity against Mca-APK(Dnp) (Glasgow et al.) (Mca-APK(Dnp)): loss-of-activity

H378A: ACE2-Fc fusion with single alanine substitution of Zn2+-binding residue His378; loss-of-activity variant
IC50 of pseudotyped viral transduction [1]: 0.16 µg/mL | inhibition of pseudotyped viral transduction (in words) [1]: could suppress the transduction of a pseudotyped virus | peptidase activity toward AngII (Phe release) (AngII): inactivate ACE2; also recorded: completely lost their enzymatic activity | peptidase activity toward AngII (Phe release) (AngII; listed as His378Ala): completely lack of peptidase activity | peptidase activity toward surrogate substrate Mca-APK(Dnp) [2]: completely lost their enzymatic activity | peptidase activity toward surrogate substrate Mca-APK(Dnp) ([2]; listed as His378Ala): completely lack of peptidase activity | peptidase activity toward apelin-13 (Phe release) (apelin-13 [3]): inactivate ACE2; also recorded: completely lost their enzymatic activity | peptidase activity toward apelin-13 (Phe release) (apelin-13 [3]; listed as His378Ala): completely lack of peptidase activity

R273A
IC50 of pseudotyped viral transduction [1]: 0.19 µg/mL | inhibition of pseudotyped viral transduction (in words) [1]: could suppress the transduction of a pseudotyped virus | generation of Ang 1-7 from Ang II by mass spectrometry (Ang II): loss of activity | generation of Ang 1-7 from Ang II by mass spectrometry (Ang II; listed as ACE2-Fc R273A): no Ang 1-7 signal was observed

angiotensin converting enzyme 2 [ACE2]
Km (apelin-13 [4]): 6.8 µM | Km (angiotensin I): 6.9 µM | Km (angiotensin II): 2 µM | Km (dynorphin-13): 5.5 µM

wild-type ACE2-Fc: ectodomain of human ACE2 fused to the N-terminus of Fc domain of human IgG1; forms a dimer
binding to SARS-CoV-2 spike RBD [5]: highest binding affinity | blood pressure control [6]: blood pressure control for up to two weeks | tolerability of repeated doses [7]: well tolerated

Reference: patent US20230265407A1, “HUMAN RECOMBINANT ACE2-FC MUTANTS THAT DECOUPLE ANTI-SARS-COV-2 ACTIVITY FROM CARD[…]” (Northwestern University, priority 2020, published 2023)
